{"source": "patent US20210260155A1", "about": "“H-NOX Proteins for Treating Cardiovascular and Pulmonary Conditions” (OMNIOX.INC., priority 2018, published 2021)", "experiment": "NO reactivity", "assay_type": "biochemical", "experimental": "NO reactivity is measured using purified proteins (H-NOX, polymeric H-NOX, Homo sapiens hemoglobin (Hs Hb) etc.) prepared at 2 μM in buffer A and NO prepared at 200 μM in Buffer A (Buffer A: 50 mM Hepes, pH 7.5, 50 mM NaCl). Data are acquired on a HI-TECH Scientific SF-61 stopped-flow spectrophotometer equipped with a Neslab RTE-100 constant-temperature bath set to 20° C. (TGK Scientific LTD., Bradford On Avon, United Kingdom). The protein is rapidly mixed with NO in a 1:1 ratio with an integration time of 0.00125 sec. The wavelengths of maximum change are fit to a single exponential using the software that is part of the spectrometer, essentially measuring the rate-limiting step of oxidation by NO. The end products of the reaction are ferric-NO for the HNOX proteins and ferric-aquo for Hs Hb.", "data": [{"molecule": "wild-type T. tengcongensis H-NOX: wild-type Thermoanaerobacter tengcongensis H-NOX protein, SEQ ID NO:2 (protein, listed as Thermoanaerobacter tengcongensis) MKGTIVGTWIKTLRDLYGNDVVDESLKSVGWEPDRVITPLEDIDDDEVRRIFAKVSEKTGKNVNEIWREVGRQNIKTFSEWFPSYFAGRRLVNFLMMMDEVHLQLTKMIKGATPPRLIAKPVAKDAIEMEYVSKRKMYDYFLGLIEGSSKFFKEEISVEEVERGEKDGFSRLKVRIKFKNPVFE", "values": [{"measurement": "NO reactivity", "result": "low"}]}]}
